Reference: PMC8024894
Blank lines part the entries; values can stand above or below the molecule they belong to.

Key:
[1] = target: endogenous neurexin on the surface of immature hippocampal neurons (mouse (endogenous in primary hippocampal neurons)) (UniProt Q9CS84); assay: immunostaining of cells or tissue; cell surface binding assay, apparent Kd: Fc protein at 0-100 nM in HEPES bath solution, 1 h at room temperature, on DIV10 hippocampal neurons transduced with CA10-FLAG lentivirus; Fc signal normalised to neurexin staining
[2] = target: endogenous neurexin on the surface of immature hippocampal neurons (mouse (endogenous in primary hippocampal neurons)) (UniProt Q9CS84); assay: immunostaining of cells or tissue; cell surface binding assay, apparent Kd: Fc protein at 0-100 nM in HEPES bath solution, 1 h at room temperature, on DIV10 hippocampal neurons transduced with control (empty vector) lentivirus; Fc signal normalised to neurexin staining

UniProt Q9CS84, sequence (Q9CS84 31-1514): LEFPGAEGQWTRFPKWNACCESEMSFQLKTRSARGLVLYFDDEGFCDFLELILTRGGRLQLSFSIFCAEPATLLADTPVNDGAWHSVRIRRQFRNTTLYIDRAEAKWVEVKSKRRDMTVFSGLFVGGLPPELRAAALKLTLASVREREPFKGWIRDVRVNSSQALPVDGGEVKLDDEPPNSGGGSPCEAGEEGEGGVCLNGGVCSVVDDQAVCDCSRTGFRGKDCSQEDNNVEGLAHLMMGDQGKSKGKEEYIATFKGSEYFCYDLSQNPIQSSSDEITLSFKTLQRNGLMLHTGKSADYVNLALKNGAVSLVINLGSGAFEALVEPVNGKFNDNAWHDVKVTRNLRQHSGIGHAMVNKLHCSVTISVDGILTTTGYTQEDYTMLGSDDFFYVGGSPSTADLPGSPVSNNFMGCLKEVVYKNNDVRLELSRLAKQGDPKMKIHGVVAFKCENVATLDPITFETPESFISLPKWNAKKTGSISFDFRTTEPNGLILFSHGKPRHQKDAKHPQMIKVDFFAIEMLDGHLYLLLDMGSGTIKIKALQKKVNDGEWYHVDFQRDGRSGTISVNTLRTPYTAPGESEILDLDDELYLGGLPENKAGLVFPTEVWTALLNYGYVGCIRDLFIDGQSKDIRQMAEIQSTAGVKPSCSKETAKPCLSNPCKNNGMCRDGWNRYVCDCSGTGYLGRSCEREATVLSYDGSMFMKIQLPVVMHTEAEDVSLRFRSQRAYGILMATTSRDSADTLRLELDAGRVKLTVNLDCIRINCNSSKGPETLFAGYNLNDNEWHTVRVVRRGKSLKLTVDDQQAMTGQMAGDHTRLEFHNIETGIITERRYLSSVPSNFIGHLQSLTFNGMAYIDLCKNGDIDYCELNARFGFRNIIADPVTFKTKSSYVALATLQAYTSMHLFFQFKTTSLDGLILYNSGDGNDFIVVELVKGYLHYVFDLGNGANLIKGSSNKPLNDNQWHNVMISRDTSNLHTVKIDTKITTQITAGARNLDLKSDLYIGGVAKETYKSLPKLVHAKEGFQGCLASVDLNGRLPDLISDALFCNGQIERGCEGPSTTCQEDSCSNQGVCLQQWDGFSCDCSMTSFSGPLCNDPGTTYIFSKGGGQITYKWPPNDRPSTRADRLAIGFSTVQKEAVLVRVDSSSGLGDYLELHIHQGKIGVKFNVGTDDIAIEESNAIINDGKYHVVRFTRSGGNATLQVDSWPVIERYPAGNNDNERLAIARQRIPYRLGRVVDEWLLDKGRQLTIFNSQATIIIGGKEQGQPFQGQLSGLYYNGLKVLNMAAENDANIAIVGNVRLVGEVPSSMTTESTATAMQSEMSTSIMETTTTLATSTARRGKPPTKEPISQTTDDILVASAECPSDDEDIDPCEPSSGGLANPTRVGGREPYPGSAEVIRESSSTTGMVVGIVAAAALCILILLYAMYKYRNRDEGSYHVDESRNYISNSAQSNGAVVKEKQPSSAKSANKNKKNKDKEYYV

Kd [1]: 223 nM
Kd [2]: 186 nM
Molecule: Fc‐tagged Nlgn1 (Fc fusion)

Kd [1]: 35.3 nM
Kd [2]: 29.5 nM
B1: Fc‐tagged LRRTM2 (Fc fusion)
chain: CPPKCRCEKLLFYCDSQGFHSVPNATDKGSLGLSLRHNHITELERDQFASFSQLTWLHLDHNQISTVKEDAFQGLYKLKELILSSNKIFYLPNTTFTQLINLQNLDLSFNQLSSLHPELFYGLRKLQTLHLRSNSLRTIPVRLFWDCRSLEFLDLSTNRLRSLARNGFAGLIKLRELHLEHNQLTKINFAHFLRLSSLHTLFLQWNKISNLTCGMEWTWGTLEKLDLTGNEIKAIDLTVFETMPNLKILLMDNNKLNSLDSKILNSLRSLTTVGLSGNLWECSARICALASWLGSFQGRWEHSILCHSPDHTQGEDILDAVHGFQLCWNLSTTVTVMATTYRDPTTEYTKRISSSSYHVGDKEIPTTAGIAVTTEEHFPEPDNAIFTQR
